{"source": "patent US20140193417A1", "about": "(LUDWIG INSTITUTE FOR CANCER RESEARCH, published 2014)", "binders": {"B1": {"name": "Murine mAb MX35 (IgG1) (antibody, V domains shown)", "VH": "QVQLKQSGAELVKPGASVKMSCKASGYTFTGYNIHWVKQTPGQGLEWIGAIYPGNGDTSYKQKFRGKASLTADTSSSTVYMQLSSLTSEDSAVYYCARGETARATFAYWGQGTLVTVSA", "VL": "DIQMTQTTSSLPASLGDRVTISCSASQDIGNFLNWYQQKPDGTVKVLIYYTSSLYSGVPSRFSGSGSGTDYSLTISNLEPEDIATYYCQQYSKLPLTFGAGTKLELKR", "notes": "also called MX35 MAb; monoclonal antibody MX35"}}, "key": {"[1]": {"target": "T1, sodium-dependent phosphate transport protein 2b (NaPi2b, SLC34A2), human, endogenous (human, UniProt O95436 1-690)", "T1 construct": "whole, on cells; Naturally expressed, N-glycosylated membrane protein of human cancer cell lines (OVCAR-3, SK-RC-18 and others) and tissues; used on intact cells (MHA, flow cytometry), in cell or tissue lysates (Western blot, immunoprecipitation) and in tissue sections; also called MX35 antigen; NaPi2b/MX35", "T1 sequence (looked up)": "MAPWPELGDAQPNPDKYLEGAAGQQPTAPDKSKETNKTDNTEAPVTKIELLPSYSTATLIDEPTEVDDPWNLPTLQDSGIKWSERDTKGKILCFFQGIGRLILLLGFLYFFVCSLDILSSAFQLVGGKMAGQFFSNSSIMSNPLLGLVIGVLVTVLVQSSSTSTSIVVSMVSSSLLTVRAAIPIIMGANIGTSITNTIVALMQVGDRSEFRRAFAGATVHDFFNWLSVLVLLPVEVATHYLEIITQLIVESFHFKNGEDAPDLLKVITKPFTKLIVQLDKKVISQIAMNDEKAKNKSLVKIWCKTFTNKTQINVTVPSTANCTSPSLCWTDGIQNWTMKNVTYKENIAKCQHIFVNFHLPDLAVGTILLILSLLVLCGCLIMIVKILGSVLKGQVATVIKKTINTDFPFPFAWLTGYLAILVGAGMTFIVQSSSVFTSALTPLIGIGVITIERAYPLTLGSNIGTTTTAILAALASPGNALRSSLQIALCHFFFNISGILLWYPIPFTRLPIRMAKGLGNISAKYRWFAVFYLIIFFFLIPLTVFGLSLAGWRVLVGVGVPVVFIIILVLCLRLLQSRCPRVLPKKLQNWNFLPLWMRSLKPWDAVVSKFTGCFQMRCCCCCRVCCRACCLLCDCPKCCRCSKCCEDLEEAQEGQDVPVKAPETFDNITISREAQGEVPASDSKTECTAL", "assay": "mixed hemadsorption assay (MHA) on SK-RC-33 renal cancer cells", "excerpt": "A panel of cancer cell lines was co-typed for SLC34A2 mRNA expression by RT-PCR and for cell surface expression of MX35 protein antigen in a mixed hemadsorption assay (MHA) using mAb MX35 as probe. In addition, cell lysates were probed by Western blot analysis for MX35 expression. A panel of cancer cell lines with known expression of MX35 antigen was included. Strong expression of SLC34A2 mRNA correlated with MX35 antigen cell surface expression in all cells analyzed (Table 1). No such correlation was found for the Zinc-finger protein 638 (data not shown)."}, "[2]": {"target": "T2, GST/NaPi2b-4L fusion protein (311-340aa) (human, UniProt O95436 311-340)", "T2 construct": "Expressed in E. coli; not shown: glutathione S-transferase (GST) tag of vector pGEX4T1", "T2 chain (looked up)": "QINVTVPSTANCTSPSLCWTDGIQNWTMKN", "assay": "Western blot of truncated GST fusion proteins"}, "[3]": {"target": "T3, synthetic 29mer peptide representing amino acids 312-340 of the NaPi2b protein (human)", "T3 construct": "no end modifications stated", "T3 peptide": "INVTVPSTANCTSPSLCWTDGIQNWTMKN", "assay": "peptide ELISA and dot blot"}, "[4]": {"target": "T4, T330M variant 312-340 peptide (SLC34A p312-340 T330M) (human)", "T4 construct": "also called T330M P312-340 peptide", "T4 peptide": "SPSLCWMDGIQNWTM", "assay": "dot blot", "excerpt": "Corut et al have studied and identified mutations in SLC34A2 that are predicted to cause pulmonary alveolar microlithiasis and are possibly also associated with testicular microlithiasis (Corut, A. et al (2006) AM J. Hum Genet. 79:650-656). While analyzing normal controls, Corut identified a novel variant c.989C-T (p. T330M), whereby threonine is replaced with methionine, substituting a polar residue with a non-polar residue. This is presumed to inactivate the SLC34A2 protein. This T330M mutation is located within the MX35 epitope peptide region of SLC34A2. […] While MX35, L2 and L3 antibodies bind p312-340 peptide SEQ ID NO: 8, none of these antibodies bind T330M P312-340 peptide by dot blot analysis."}, "[5]": {"target": "T5, murine NaPi2b protein (mouse, UniProt Q9DBP0 1-697)", "T5 construct": "also called the murine protein; murine counterpart", "T5 sequence (looked up)": "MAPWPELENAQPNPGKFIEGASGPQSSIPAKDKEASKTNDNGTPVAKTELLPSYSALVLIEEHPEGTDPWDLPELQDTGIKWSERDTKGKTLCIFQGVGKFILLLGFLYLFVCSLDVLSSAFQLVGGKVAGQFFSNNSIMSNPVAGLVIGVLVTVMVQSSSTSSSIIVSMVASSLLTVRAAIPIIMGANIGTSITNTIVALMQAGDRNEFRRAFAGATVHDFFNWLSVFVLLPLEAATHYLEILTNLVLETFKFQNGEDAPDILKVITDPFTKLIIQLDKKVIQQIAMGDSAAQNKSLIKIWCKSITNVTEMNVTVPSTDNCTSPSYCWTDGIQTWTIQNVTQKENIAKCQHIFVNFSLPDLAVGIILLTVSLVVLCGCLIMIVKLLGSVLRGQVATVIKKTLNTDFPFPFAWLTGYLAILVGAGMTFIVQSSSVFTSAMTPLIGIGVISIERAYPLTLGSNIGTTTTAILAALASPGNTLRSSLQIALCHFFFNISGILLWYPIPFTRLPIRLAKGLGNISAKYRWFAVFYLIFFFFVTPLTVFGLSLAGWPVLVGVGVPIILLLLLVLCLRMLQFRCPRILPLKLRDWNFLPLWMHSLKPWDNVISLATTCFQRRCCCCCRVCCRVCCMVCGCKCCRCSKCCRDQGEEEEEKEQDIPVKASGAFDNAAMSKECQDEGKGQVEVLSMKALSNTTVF", "assay": "Western blot of mouse tissues (data not shown)"}}}
{"binder": "B1", "values": [{"measurement": "binding result", "setting": "[1]", "result": "binds"}, {"measurement": "binding result", "setting": "[2]", "result": "binds"}, {"measurement": "binding result", "setting": "[3]", "result": "binds"}, {"measurement": "binding result", "setting": "[4]", "result": "no binding"}, {"measurement": "binding result", "setting": "[5]", "result": "no binding"}]}
